pKd: −log10 of the molar value. Each block holds one sequence with its values, some of them ahead of it.
What was measured:
HLA-B*58:01 [1] = experiment: IEDB peptide-MHC binding, purified MHC/competitive/radioactivity; filed as Kd, often an IC50 or EC50 that approximates it; ≥ and ≤ were set here for values at or beyond the usual limits of such assays
HLA-B*57:01 [2] = experiment: as above
HLA-A*01:01 [3] = experiment: as above
HLA-B*27:05 = experiment: IEDB peptide-MHC binding, purified MHC/direct/fluorescence; filed as Kd, often an IC50 or EC50 that approximates it; ≥ and ≤ were set here for values at or beyond the usual limits of such assays; settings: source organism: Giardia lamblia ATCC 50803
HLA-A*26:01 [4] = experiment: as above; settings: source organism: Giardia lamblia ATCC 50803
HLA-B*07:02 = experiment: as above; settings: source organism: Giardia lamblia ATCC 50803
HLA-A*31:01 = experiment: as above; settings: source organism: Giardia lamblia ATCC 50803
HLA-B*39:01 [5] = experiment: as above
HLA-B*58:01 [6] = experiment: as above
HLA-B*44:02 = experiment: as above; settings: source organism: Giardia lamblia ATCC 50803
HLA-A*69:01 [7] = experiment: as above; settings: source organism: Giardia lamblia ATCC 50803
HLA-B*15:01 [8] = experiment: as above; settings: source organism: Giardia lamblia ATCC 50803
HLA-A*02:01 [9] = experiment: as above; settings: source organism: Giardia lamblia ATCC 50803
HLA-B*40:01 = experiment: as above; settings: source organism: Giardia lamblia ATCC 50803
HLA-B*08:01 = experiment: as above; settings: source organism: Giardia lamblia ATCC 50803
HLA-A*01:01 [10] = experiment: as above; settings: source organism: Giardia lamblia ATCC 50803
HLA-A*11:01 = experiment: as above; settings: source organism: Giardia lamblia ATCC 50803
HLA-A*03:01 [11] = experiment: as above
HLA-A*02:03 = experiment: as above
HLA-A*02:19 = experiment: as above
HLA-A*24:03 = experiment: as above
HLA-A*02:12 = experiment: as above
HLA-A*68:02 = experiment: as above
HLA-A*02:11 = experiment: as above
HLA-A*02:16 = experiment: as above
HLA-A*26:01 [12] = experiment: IEDB peptide-MHC binding, purified MHC/competitive/fluorescence; filed as Kd, often an IC50 or EC50 that approximates it; ≥ and ≤ were set here for values at or beyond the usual limits of such assays
HLA-B*18:01 = experiment: as above; settings: source organism: Reston ebolavirus
HLA-B*39:01 [13] = experiment: as above
HLA-B*15:17 [14] = experiment: as above
HLA-B*51:01 = experiment: as above
HLA-A*69:01 [15] = experiment: as above
HLA-B*15:01 [16] = experiment: as above; settings: source organism: Reston ebolavirus
HLA-A*02:01 [17] = experiment: as above
HLA-B*46:01 = experiment: as above
HLA-B*57:01 [18] = experiment: as above
HLA-B*27:03 = experiment: as above
HLA-B*15:17 [19] = experiment: IEDB peptide-MHC binding, purified MHC/direct/fluorescence; filed as Kd, often an IC50 or EC50 that approximates it; ≥ and ≤ were set here for values at or beyond the usual limits of such assays
HLA-B*57:01 [20] = experiment: as above
HLA-B*53:01 = experiment: IEDB peptide-MHC binding, purified MHC/competitive/radioactivity; filed as Kd, often an IC50 or EC50 that approximates it; ≥ and ≤ were set here for values at or beyond the usual limits of such assays
HLA-A*03:01 [21] = experiment: IEDB peptide-MHC binding, purified MHC/competitive/fluorescence; filed as Kd, often an IC50 or EC50 that approximates it; ≥ and ≤ were set here for values at or beyond the usual limits of such assays; settings: source organism: Four Corners hantavirus
HLA-A*24:02 = experiment: IEDB peptide-MHC binding, purified MHC/competitive/radioactivity; filed as Kd, often an IC50 or EC50 that approximates it; ≥ and ≤ were set here for values at or beyond the usual limits of such assays; settings: source organism: Dengue virus 1 Singapore/S275/1990
HLA-A*26:01 [22] = experiment: as above; settings: source organism: Dengue virus 1 Singapore/S275/1990
HLA-A*23:01 = experiment: as above; settings: source organism: Dengue virus 1 Singapore/S275/1990
[23] = source organism: Dengue virus 1 Brazil/97-11/1997
[24] = source organism: Dengue virus 4 Philippines/H241/1956
[25] = source organism: Giardia lamblia ATCC 50803
[26] = source organism: Reston ebolavirus
[27] = source organism: Escherichia coli O157:H7
[28] = source organism: Dengue virus 3 Sri Lanka/1266/2000
[29] = source organism: Dengue virus 3 Martinique/1243/1999
[30] = source organism: Limestone Canyon virus
[31] = source organism: Four Corners hantavirus
[32] = source organism: Listeria monocytogenes FSL N3-165
[33] = source organism: Dengue virus 1 Singapore/S275/1990

Sequence: VSSWEEVPYL
pKd (HLA-B*58:01 [1]; [23]): 6.59 | pKd (HLA-B*57:01 [2]; [23]): 6.42 | pKd (HLA-A*01:01 [3]; [23]): 4.91

Sequence: AVFQEEQGW
pKd (HLA-B*57:01 [2]; [24]): 7.47

Sequence: SHSIPNGLL
pKd (HLA-B*27:05): ≤ 4.70 | pKd (HLA-A*26:01 [4]): ≤ 4.70 | pKd (HLA-B*07:02): ≤ 4.70 | pKd (HLA-A*31:01): ≤ 4.70 | pKd (HLA-B*39:01 [5]; [25]): 6.45 | pKd (HLA-B*58:01 [6]; [25]): ≤ 4.70 | pKd (HLA-B*44:02): ≤ 4.70 | pKd (HLA-A*69:01 [7]): ≤ 4.70 | pKd (HLA-B*15:01 [8]): ≤ 4.70 | pKd (HLA-A*02:01 [9]): ≤ 4.70 | pKd (HLA-B*40:01): ≤ 4.70 | pKd (HLA-B*08:01): ≤ 4.70 | pKd (HLA-A*01:01 [10]): ≤ 4.70 | pKd (HLA-A*11:01): ≤ 4.70 | pKd (HLA-A*03:01 [11]; [25]): ≤ 4.70

Sequence: WFQRIPLQW
pKd (HLA-A*02:03; [26]): ≤ 4.70 | pKd (HLA-A*02:19; [26]): ≤ 4.70 | pKd (HLA-A*24:03; source organism: Tai Forest virus - Cote d'Ivoire, Cote d'Ivoire, 1994): 9.52 | pKd (HLA-A*02:12; [26]): ≤ 4.70 | pKd (HLA-A*68:02; [26]): ≤ 4.70 | pKd (HLA-A*02:11; [26]): ≤ 4.70 | pKd (HLA-A*02:16; [26]): ≤ 4.70 | pKd (HLA-A*03:01 [11]; [26]): ≤ 4.70 | pKd (HLA-A*26:01 [12]; [26]): ≤ 4.70 | pKd (HLA-B*18:01): ≤ 4.70 | pKd (HLA-B*39:01 [13]; [26]): ≤ 4.70 | pKd (HLA-B*15:17 [14]; [26]): ≤ 4.70 | pKd (HLA-B*51:01; [26]): ≤ 4.70 | pKd (HLA-A*69:01 [15]; [26]): ≤ 4.70 | pKd (HLA-B*15:01 [16]): ≤ 4.70 | pKd (HLA-A*02:01 [17]; [26]): ≤ 4.70 | pKd (HLA-B*46:01; [26]): ≤ 4.70 | pKd (HLA-B*57:01 [18]; [26]): ≤ 4.70 | pKd (HLA-B*27:03; [26]): ≤ 4.70

Sequence: LSSRAKLALD
pKd (HLA-B*58:01 [1]; [24]): 6.44 | pKd (HLA-B*57:01 [2]; [24]): 5.13

pKd (HLA-B*58:01 [6]; [27]): 8.82 | pKd (HLA-B*15:17 [19]; [27]): 8.89 | pKd (HLA-B*57:01 [20]; [27]): 7.49
Sequence: KSWPAAIDW

Sequence: AAVEDEEFW
pKd (HLA-B*58:01 [1]; [28]): 8.36 | pKd (HLA-B*53:01; [28]): 7.97 | pKd (HLA-B*57:01 [2]; [28]): 5.96

Sequence: FRGRGVFEL
pKd (HLA-B*39:01 [5]; source organism: Influenza A virus (A/Moscow/10/1999(H3N2))): 7.21

Sequence: PTSYLDVDLH
pKd (HLA-B*57:01 [2]; [29]): ≤ 4.43

Sequence: YATQTVGPW
pKd (HLA-B*58:01 [1]; [24]): 7.77 | pKd (HLA-B*53:01; [24]): 7.55 | pKd (HLA-B*57:01 [2]; [24]): 6.22

Sequence: KLKKKSAFY
pKd (HLA-A*02:03; [30]): ≤ 4.70 | pKd (HLA-A*02:19; [30]): ≤ 4.70 | pKd (HLA-A*24:03; [30]): ≤ 4.70 | pKd (HLA-A*02:12; [30]): ≤ 4.70 | pKd (HLA-A*68:02; [30]): ≤ 4.70 | pKd (HLA-A*02:11; [30]): ≤ 4.70 | pKd (HLA-A*02:16; [30]): ≤ 4.70 | pKd (HLA-A*26:01 [12]; [31]): ≤ 4.70 | pKd (HLA-B*39:01 [13]; [31]): ≤ 4.70 | pKd (HLA-B*15:17 [14]; [31]): ≤ 4.70 | pKd (HLA-B*51:01; [31]): ≤ 4.70 | pKd (HLA-A*69:01 [15]; [31]): ≤ 4.70 | pKd (HLA-A*02:01 [17]; [31]): ≤ 4.70 | pKd (HLA-B*46:01; [31]): ≤ 4.70 | pKd (HLA-B*57:01 [18]; [31]): ≤ 4.70 | pKd (HLA-B*27:03; [31]): ≤ 4.70 | pKd (HLA-A*03:01 [21]): 7.35

Sequence: PASAWTLYAV
pKd (HLA-B*57:01 [2]; source organism: Dengue virus 2 Jamaica/1409/1983): 5.95

Sequence: ILIGFLVLW
pKd (HLA-B*58:01 [1]; [24]): 6.39 | pKd (HLA-B*57:01 [2]; [24]): 5.90

Sequence: LTSREVLLLT
pKd (HLA-B*58:01 [1]; [23]): 6.39 | pKd (HLA-B*57:01 [2]; [23]): 6.15

Sequence: WTRPRYIEI
pKd (HLA-B*58:01 [6]; [32]): 6.37 | pKd (HLA-B*15:17 [19]; source organism: Listeria monocytogenes): 6.57 | pKd (HLA-B*57:01 [20]; [32]): ≤ 4.70

Sequence: IARISALGF
pKd (HLA-B*58:01 [6]; source organism: Brucella suis): 4.85 | pKd (HLA-B*15:17 [19]; source organism: Brucella suis): 8.44 | pKd (HLA-B*57:01 [20]; source organism: Brucella suis 1330): 7.06

Sequence: IASSGMLWMA
pKd (HLA-B*58:01 [1]; [29]): 5.99 | pKd (HLA-B*57:01 [2]; [29]): 4.98

Sequence: VTARWLWGF
pKd (HLA-A*24:02): 6.82 | pKd (HLA-A*26:01 [22]): 5.15 | pKd (HLA-A*23:01): 6.87 | pKd (HLA-B*58:01 [1]; [33]): 7.42 | pKd (HLA-B*57:01 [2]; [33]): 8.80 | pKd (HLA-A*01:01 [3]; [33]): 5.40
